Data published in the RNAGym collection of RNA variant scans (doi:10.7554/elife.80360).

B1: HDV Ribozyme (parent)
chain: GGCCGGCAUGGUCCCAGCCUCCUCGCUGGCGCCGGCUGGGCAACAUUCCGAGGGGACCGUCCCCUCGGUAAUGGCGAAUGGGACCCA

Variants of: B1
Test: self-cleavage, relative activity (ratio to wild type); higher = more cleavage; co-transcriptional

| Variant | self-cleavage |
| --- | --- |
| C7A C33G | 0.0519 |
| C7A C33A | 0.0639 |
| C7A U69A | 0.449 |
| A8G C86U | 1.11 |
| A8G G52C | 1.26 |
| A8G G52A | 0.719 |
| A8U C33U | 0.453 |
| A8U C33G | 0.0536 |
| C7G C19G | 0.0791 |
| C7U G67U | 0.684 |
| C7U G67A | 0.904 |
| A8C C26U | 1.01 |
| A8C G80C | 0.133 |
| A8C U69C | 0.831 |
| A8C A56U | 1 |
| C7U G39C | 0.0923 |
| A8C G82C | 0.0923 |
| A8U A70U | 0.772 |
| C7U C13A | 0.124 |
| C7A C58A | 0.772 |
| C7U C14U | 0.785 |
| C7G U9C | 0 |
| A8G U72G | 0.536 |
| A8C U47C | 0.665 |

| Variant | self-cleavage |
| --- | --- |
| A8U C19A | 0 |
| C7G A42U | 0.0665 |
| C7G A42G | 0.111 |
| A8C G50A | 0.96 |
| C7G C33U | 0 |
| C7A G80A | 0.0739 |
| C7A G80U | 0.152 |
| A8C U72G | 0.332 |
| A8C U72A | 0.375 |
| C7A C49G | 0.291 |
| C7G C86U | 0.383 |
| C7U C30U | 0.483 |
| C7A G54C | 0.8 |
| C7G G10U | 0.0462 |
| C7G G40C | 0 |
| C7G G40U | 0.268 |
| C7G G40A | 0.0536 |
| A8G G39C | 0.142 |
| A8G C84A | 0.598 |
| A8C U37A | 0.128 |
| A8C U37C | 0.997 |
| C7A C41U | 0.489 |
| C7G A45U | 0.383 |
| A8G U46G | 0.623 |

| Variant | self-cleavage |
| --- | --- |
| A8G U46A | 0.723 |
| C7G G82C | 0 |
| A8G A56C | 0.867 |
| C7G C61A | 0.486 |
| C7G C61G | 0.287 |
| A8C G81A | 0.151 |
| A8G U65A | 0.89 |
| C7G G76C | 0.151 |
| C7U G40U | 0.821 |
| C7U C41U | 0.802 |
| C7U C58U | 1.19 |
| C7A G10U | 0.0723 |
| C7A G10C | 0.201 |
| C7U A87C | 0.968 |
| C7U A87U | 0.938 |
| A8G U60G | 1.11 |
| C7G U20A | 0 |
| C7A C84G | 0.128 |
| C7A U23G | 0.19 |
| C7A G81C | 0.0536 |
| A8C C18A | 0.0415 |
| C7U U65C | 0.914 |
| C7U G35C | 0 |
| C7U A51U | 1.13 |

| Variant | self-cleavage |
| --- | --- |
| A8G G35U | 0.306 |
| C7G G34C | 0.213 |
| C7A C26G | 0.554 |
| C7A C26U | 0.919 |
| C7G G38A | 0.101 |
| C7G G38U | 0.0692 |
| A8G G28C | 0 |
| A8G G28A | 0.166 |
| A8U C41U | 0.594 |
| A8C C48U | 0.776 |
| A8C C48G | 0.175 |
| A8G C33U | 0.751 |
| A8G C33A | 0.101 |
| C7G C85A | 0.302 |
| C7U C19A | 0.157 |
| C7G A70C | 0.237 |
| C7G A70G | 0.256 |
| A8G C61A | 0.886 |
| C7U U79A | 0.675 |
| A8G U37A | 0.147 |
| A8G C62U | 0.95 |
| A8G C62G | 0.489 |
| C7G C36G | 0.0723 |
| C7G C36A | 0.111 |

| Variant | self-cleavage |
| --- | --- |
| C7G C36U | 0.0504 |
| A8C A71G | 0.772 |
| C7A G28C | 0.0615 |
| C7G U12A | 0 |
| A8C U23C | 0.506 |
| A8C C57G | 0.87 |
| A8C U12A | 0 |
| A8C C22A | 0.249 |
| C7A G73U | 0.128 |
| C7A G73C | 0.106 |
| A8C U79A | 0.506 |
| A8C A42U | 0.133 |
| A8C A42C | 0.201 |
| C7G G81U | 0.0594 |
| A8U C15U | 0.935 |
| C7U C18G | 0.0639 |
| A8C C85U | 0.886 |
| C7G A77G | 0.0755 |
| C7G A77U | 0.0875 |
| C7A G52U | 0.462 |
| A8G C75A | 0.0692 |
| C7U G74U | 0.202 |
| C7A C64G | 0.429 |
| C7A C64U | 0.491 |

| Variant | self-cleavage |
| --- | --- |
| A8G G67U | 0.978 |
| A8G U27G | 0.831 |
| C7A C48G | 0.462 |
| C7A C36G | 0.0875 |
| C7U G53A | 0.964 |
| C7U G53U | 1.09 |
| C7G C63U | 0.674 |
| C7A G38C | 0.106 |
| C7G G11A | 0.0346 |
| C7G G52U | 0.196 |
| C7G A87U | 0.284 |
| A8G G11U | 0.0739 |
| A8G G11C | 0.0437 |
| A8G A16C | 0.639 |
| A8G A16U | 0.895 |
| C7U C85A | 0.665 |
| A8C C13G | 0.0692 |
| A8C G28C | 0 |
| C7A C63U | 0.652 |
| C7G U65C | 0.0831 |
| C7G U65G | 0.199 |
| C7A C44G | 0.0594 |
| C7A C44U | 0.0723 |
| C7G U23C | 0 |

| Variant | self-cleavage |
| --- | --- |
| C7G A71G | 0.151 |
| C7U G81C | 0.383 |
| C7U C24U | 0.261 |
| A8C G39C | 0.0615 |
| A8C G39A | 0.151 |
| A8C G39U | 0.381 |
| C7U U23G | 0.332 |
| A8G G38A | 0.0959 |
| A8G G38U | 0.0405 |
| C7G C18U | 0.0639 |
| A8C A83U | 0.237 |
| A8C A83C | 0.317 |
| A8G A87C | 1.18 |
| A8G A87G | 0.942 |
| A8C C21U | 0.0594 |
| A8C G54A | 0.759 |
| A8C G54U | 0.618 |
| A8G G59U | 0.914 |
| A8G G59C | 0.858 |
| C7A G11A | 0.0674 |
| C7A G11C | 0 |
| C7A G59U | 0.646 |
| C7A G59A | 0.753 |
